Measurements published in patent US20240409645A1.

T1: mouse IL-2Rγ (mouse) (UniProt P34902)
T1 sequence (looked up): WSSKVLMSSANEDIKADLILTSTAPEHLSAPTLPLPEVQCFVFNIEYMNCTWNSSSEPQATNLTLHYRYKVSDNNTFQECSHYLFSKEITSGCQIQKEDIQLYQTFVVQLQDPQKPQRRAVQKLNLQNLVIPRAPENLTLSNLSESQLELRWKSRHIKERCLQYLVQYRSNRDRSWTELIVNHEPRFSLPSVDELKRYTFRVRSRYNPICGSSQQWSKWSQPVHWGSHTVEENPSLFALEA

T2: mouse IL-2Rβ (mouse) (UniProt P16297)
T2 sequence (looked up): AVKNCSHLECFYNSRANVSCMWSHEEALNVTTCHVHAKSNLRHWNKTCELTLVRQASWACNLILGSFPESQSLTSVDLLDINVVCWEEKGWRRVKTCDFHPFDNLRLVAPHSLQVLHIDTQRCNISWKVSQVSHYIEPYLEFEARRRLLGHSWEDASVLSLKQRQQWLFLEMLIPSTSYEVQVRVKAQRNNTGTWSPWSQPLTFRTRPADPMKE

T3: mouse common cytokine receptor γ-chain (IL-2Rγ) (mouse) (UniProt P34902)
T3 sequence (looked up): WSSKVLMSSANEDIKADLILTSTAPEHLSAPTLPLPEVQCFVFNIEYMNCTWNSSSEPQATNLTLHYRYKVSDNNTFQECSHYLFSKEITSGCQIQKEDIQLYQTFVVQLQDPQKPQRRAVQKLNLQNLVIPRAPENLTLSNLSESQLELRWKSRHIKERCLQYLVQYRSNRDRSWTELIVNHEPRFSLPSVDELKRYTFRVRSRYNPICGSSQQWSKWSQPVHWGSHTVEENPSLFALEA


Tests used:
mouse IL-2Rγ (mouse) = target: T1, mouse IL-2Rγ (mouse); assay: P.E. binding ELISA
mouse IL-2Rβ (mouse) = target: T2, mouse IL-2Rβ (mouse); assay: P.E. binding ELISA, mouse IL-2Rβ coated
[1] = target: T3, mouse common cytokine receptor γ-chain (IL-2Rγ) (mouse); assay: P.E. binding ELISA

| OD450 nm (mouse IL-2Rγ (mouse)) [OD450 nm] | Binder | also measured |
| --- | --- | --- |
| 0.05 | 32-MP04A08 VHH (periplasmic extract) (VHH) VHH: QVQLVESGGGLVQAGGSLRLSCAASGRTFGSTAVGWFRQVPGKEREFVSAINRSGSATTYADSVKGRFTISRDNAKNTVYLQMNSLTPEDTGVYYCAADSLPYGRPYYFQRSAGEYDYWGQGTQVTVSS |  |
| 0.05 | 29-MP04H02 VHH (periplasmic extract) (VHH) VHH: QVQLVESGGGLVQAGGSLRLACVASGLTFDNYYMGWFRQAPGKEREFVAGIIWNGDHTAYADSIKGRFTISRDNAKNTAYLRMNSLKPEDTAVYYCAATFWIERATTPDIGQYAYWGQGTQVTVSS |  |
|  | FJ1427_P035MP06F09 (VHH) VHH: QVQLVESGGGLVQAGGSLTLSCAASGRAFSNYPVGWFRQAPGKEREFVAAITWLSGSTLYADSVEGRFTISRDNAKNTVYLLMSSLKPEDTALYFCAAALKTITRGQNDYSYWGQGTQVTVSS | OD450 nm (P.E. binding ELISA) (mouse IL-2Rβ (mouse)): 0.046 OD450 nm |
|  | FJ1427 P035MP06A08 (VHH) VHH: EVQLVESGGGLVQAGESLRLSCAASGQYFSTYSMAWFRRTPGKEREFVTIISESGGIKEYVDSVKGRFTVSRDNAKNTVYLQMNSLKPEDTAVYYCAAARDWFARNEYQYDYWGQGTQVTVSS | OD450 nm (P.E. binding ELISA) (mouse IL-2Rβ (mouse)): 0.047 OD450 nm |
| 0.045 | 35-MP07G01 VHH (periplasmic extract) (VHH) VHH: QVQLQESGGGLVQGGGSLRLSCAASGGIFSSYAMGWFRQAPGKEREFVAAISRSGRSTNYADSVKGRFTISRDNAKSTVYLQMNSLKPEETAVYYCAAGRYYNSAYDPSPGDFGSWGHGTQVTVSS |  |
|  | FJ1427_P035MP04F12 (VHH) VHH: QVQLQESGGGWVQVGESLRLSCVPSGRTFVSGIMGWFRQAPGKEREFVARIILNNNSTRYTDSVKGRFTISRDSAKNTMYLQMNTLRPEDTAVYYCAARDRYGSGNSLSPSAYDYWGQGTQVTVSS | PE binding ELISA OD [1]: 0.049 OD450 nm |
|  | FJ1427_P035MP07C02 (VHH) VHH: EVQLVESGGGWVQVGESLRLSCAPSGRTFVSGIMGWFRQTPGKEREFVARIILNNNSTRYTDSVKGRFTISRDSAKNTMYLQMNTLRPEDTAVYYCAARDRYGSGNSLSPSAYDYWGQGTQVTVSS | PE binding ELISA OD [1]: 0.044 OD450 nm |
| 0.048 | 27-MP04G01 VHH (periplasmic extract) (VHH) VHH: QVQLVESGGGLVQAGGSLTLSCAAPGRTFGTDVVGWFRQAPGKEREFVASISRSGDGIYYDDSVKGRFTISRNNAWNTVNLQMNSLKVEDTAVYYCAAGDGWSTYDYWGQGTQVTVSS |  |
